Drawing on the Immune Epitope Database (IEDB), this text covers Kd for 46 sequences.

Where only a bound is given, the exact number is not on record here.

For the first assay, the target named is HLA-A*31:01. The experiment in a line: IEDB peptide-MHC binding, purified MHC/competitive/radioactivity; filed as Kd, often an IC50 or EC50 that approximates it; ≥ and ≤ were set here for values at or beyond the usual limits of such assays. Particulars: source organism: Vaccinia virus WR.
Consider GMNDYLGIFK, for which the Kd (commonly the constant that tells how readily two partners part at equilibrium) is 390 nM.
Still for that read-out and setting: the result for GVIDTMRIY reads 991 nM; that for HLTKTDKKY, 9480 nM.
Still for that read-out and setting: in the case of IIDAKNDDWK it was at least 70000 nM; in that of IILANERYR, 106 nM.
Same read-out and setting: the result for KAGNILFWPY reads at least 22500 nM.
For the sequence KAMLYIIRR, the Kd came out at 0.319 nM.
Still for that read-out and setting: the result for LFSKNILKY reads 3890 nM; that for LISLNSMYTR, 1.11 nM.
Still for that read-out and setting: in the case of LLKILDNLR it was 20.9 nM.
Still for that read-out and setting: in the case of LLNETAKVIK it was 2430 nM; in that of LMWNKQFIK, 12.9 nM.
For LMYALEPRK, the Kd was found to be 5640 nM.
Same read-out and setting: in the case of LSCAVHLIIY it was 5370 nM; in that of LVTRKCPQKK, at least 70000 nM; in that of MSRGYFEHMK, 22 nM.
As for MSRVRISLIY, the Kd was 3120 nM.
Still for that read-out and setting: the result for MTLDDLAIK reads 408 nM.
Regarding MTLVPVLEKK, the Kd came out at 122 nM.
The same measure, in the same setting: the result for NMINKLYGY reads at least 37800 nM; that for NVTLFYCDER, 777 nM.
Still for that read-out and setting: the result for PLTSLVITY reads 1880 nM; that for PTKRCRLLK, 5310 nM.

A further assay has as its target HLA-A*33:01. The assay is described as above. The settings on record: source organism: Lassa virus Josiah.
As for LTYSQLMTLK, the Kd amounted to 10700 nM.

Still in this assay, the particulars now being: source organism: Lymphocytic choriomeningitis virus (strain Armstrong).
DHVSTLLTWH: the Kd was at least 70000 nM.

The assay is the same for the next values; noted with them: source organism: Mammarenavirus machupoense.
With EKFGHLCKYH, the Kd was at least 70000 nM.

The same assay, now with this note: source organism: SARS coronavirus Tor2.
FFTYLCGFIK: the Kd is 1200 nM.
For the sequence GFPFNKWGK, the Kd was determined as 17700 nM.
Same read-out and setting: the result for GVTFQGKFKK reads at least 24100 nM; that for NLKQLPFFYY, at least 70000 nM.

The assay is the same for the next values; noted with them: source organism: Triticum aestivum.
NVVHAIILH: the Kd is at least 24600 nM.

The same assay, now with this note: source organism: Vaccinia virus Copenhagen.
On to GFTATICLK, for which the Kd came out at 467 nM.
Take ILARRPTPK: the Kd is at least 67100 nM.
The same measure, in the same setting: the result for ILARRPTPKK reads at least 70000 nM.

Still in this assay, the particulars now being: source organism: Vaccinia virus WR.
As to DFWRLYNSLK, the Kd was 3.13 nM.
Still for that read-out and setting: the result for DIALALEQY reads at least 23900 nM.
Regarding DLTQIFEVY, the Kd worked out at 938 nM.
Still for that read-out and setting: in the case of DTSASEIKDR it was 835 nM.
Turning to DTSYYVKEY, the Kd is at least 77700 nM.
Consider EIINDKGKQY, for which the dissociation constant (Kd) is at least 70000 nM.
On to EMVDELVTR, for which the Kd was 94.3 nM.
On the same count and under the same terms, in the case of EVRIPVDLVK it was 17000 nM; in that of FAYVMNIER, 12.5 nM; in that of FMVSVSDFR, 219 nM.
With GAAVTLNRIK, the Kd is at least 70000 nM.
On the same count and under the same terms, in the case of GINNVQSLIK it was at least 70000 nM; in that of GMNDYLGIFK, 5970 nM; in that of GVIDTMRIY, 11400 nM.
Still for that read-out and setting: the result for HLTKTDKKY reads at least 41900 nM; that for IIDAKNDDWK, at least 70000 nM.
On the same count and under the same terms, in the case of IILANERYR it was 2770 nM; in that of KAGNILFWPY, at least 70000 nM; in that of KAMLYIIRR, 150 nM.
Consider LFSKNILKY, for which the Kd was determined as 8620 nM.
The same measure, in the same setting: the result for LISLNSMYTR reads 115 nM; that for LLKILDNLR, 86 nM; that for LLNETAKVIK, 15400 nM.
The same measure, in the same setting: in the case of LMWNKQFIK it was 31.8 nM; in that of LMYALEPRK, at least 25900 nM; in that of LSCAVHLIIY, 3830 nM.
For the sequence LVTRKCPQKK, the Kd was at least 70000 nM.
MSRGYFEHMK: the Kd is 2170 nM.
Consider MSRVRISLIY, for which the Kd was determined as 10600 nM.
On the same count and under the same terms, the result for MTLDDLAIK reads 2340 nM; that for MTLVPVLEKK, 869 nM.
On to NMINKLYGY, for which the Kd amounted to 14300 nM.
On the same count and under the same terms, in the case of NVTLFYCDER it was 818 nM.
Same read-out and setting: in the case of PLTSLVITY it was at least 46800 nM.
Same read-out and setting: the result for PTKRCRLLK reads at least 23700 nM.

The next assay has as its target HLA-A*68:01. Described as above. Particulars: source organism: Lassa virus Josiah.
For LTYSQLMTLK, the Kd came out at 5 nM.

Still in this assay, the particulars now being: source organism: Lymphocytic choriomeningitis virus (strain Armstrong).
Turning to DHVSTLLTWH, the Kd came to 12300 nM.

The same assay, now with this note: source organism: Mammarenavirus machupoense.
With EKFGHLCKYH, the Kd was at least 70100 nM.

Staying with this assay, now noted: source organism: SARS coronavirus Tor2.
For the sequence FFTYLCGFIK, the Kd came out at 206 nM.
Same read-out and setting: in the case of GFPFNKWGK it was 17400 nM.
Same read-out and setting: the result for GVTFQGKFKK reads 1860 nM; that for NLKQLPFFYY, at least 10000 nM.

The same assay, now with this note: source organism: Triticum aestivum.
Take NVVHAIILH: the dissociation constant Kd is 1490 nM.

Still in this assay, the particulars now being: source organism: Vaccinia virus Copenhagen.
As for GFTATICLK, the Kd turned out to be 81.5 nM.
Same read-out and setting: in the case of ILARRPTPK it was 1780 nM; in that of ILARRPTPKK, 2390 nM.

Still in this assay, the particulars now being: source organism: Vaccinia virus WR.
For DFWRLYNSLK, the Kd amounted to 730 nM.
On the same count and under the same terms, in the case of DIALALEQY it was 364 nM.
Regarding DLTQIFEVY, the Kd amounted to 857 nM.
The same measure, in the same setting: the result for DTSASEIKDR reads 17.6 nM.
As to DTSYYVKEY, the Kd is 69.1 nM.
Still for that read-out and setting: in the case of EIINDKGKQY it was 3990 nM; in that of EMVDELVTR, 2.54 nM.
On the same count and under the same terms, in the case of EVRIPVDLVK it was 656 nM; in that of FAYVMNIER, 0.38 nM.
For the sequence FMVSVSDFR, the Kd was 0.398 nM.
The same measure, in the same setting: in the case of GAAVTLNRIK it was 8350 nM; in that of GINNVQSLIK, 10300 nM; in that of GMNDYLGIFK, 572 nM.
Same read-out and setting: the result for GVIDTMRIY reads 3020 nM; that for HLTKTDKKY, 7290 nM.
Still for that read-out and setting: in the case of IIDAKNDDWK it was 2270 nM.
On to IILANERYR, for which the Kd is 92.8 nM.
For KAGNILFWPY, the Kd worked out at 14000 nM.
Same read-out and setting: the result for KAMLYIIRR reads 19.8 nM; that for LFSKNILKY, 444 nM; that for LISLNSMYTR, 38.6 nM.
As for LLKILDNLR, the Kd is 700 nM.
The same measure, in the same setting: in the case of LLNETAKVIK it was 4000 nM; in that of LMWNKQFIK, 200 nM; in that of LMYALEPRK, 808 nM.
Take LSCAVHLIIY: the Kd stood at 361 nM.
On to LVTRKCPQKK, for which the Kd is at least 70200 nM.
As for MSRGYFEHMK, the Kd was determined as 8.88 nM.
As to MSRVRISLIY, the Kd is 262 nM.
Same read-out and setting: the result for MTLDDLAIK reads 39.8 nM; that for MTLVPVLEKK, 1.31 nM.
As to NMINKLYGY, the Kd was at least 31900 nM.
On the same count and under the same terms, in the case of NVTLFYCDER it was 8.23 nM.
For the sequence PLTSLVITY, the Kd came out at 5600 nM.
Still for that read-out and setting: the result for PTKRCRLLK reads at least 22700 nM.
